Values of other authors, collected in PMC8065807.

Molecular target: EGFR (Homo sapiens) (UniProt P00533)

For GE11, the Kd is given as 22 nM.
